Assay results from US20260176621A1, “Metabolically Stabilized Carbohydrate Targeting Ligands For Oligonucleotide Conjugates” (Arrowhead Pharmaceuticals, Inc., priority 2023, published 2026).

Tests used:
Assay type in all cases: in vivo, Cynomolgus monkey
APOC3 [1] = test: Liver APOC3 mRNA expression by qPCR of liver biopsies (Example 5); conditions: for Rel. Exp. APOC3 (liver mRNA, qPCR, normalized to Day −6): 6.0 mg/kg SQ on Day 1; for inhibition of liver APOC3 transcripts: single 6.0 mg/kg SQ on Day 1
Procedure: (§1) On Day 1, three (n=3) male Cynomolgus monkey test animals for each test group were dosed with APOC3-PCSK9 RNAi agents formulated in saline (at 6.0 mg/kg), via subcutaneous (SQ) injection with syringe and needle in the mid-scapular region, at […] dose volume.
(§2) The liver biopsies and serum collected from the test animals were used for analysis for APOC3 and PCSK9 expression and additional biological parameters. Liver biopsies were collected on Day −6, Day 15, Day 36, Day 50, and Day 64 (post-mortem).
(§3) Liver biopsies were collected as a sedated procedure. Animals were fasted overnight (at least 12 hours but less than 18 hours) prior to each liver biopsy collection. For each animal, collected liver biopsy samples were of approximately 100 mg each (80 to 120 mg).
(§4) The collected liver biopsies were analyzed for APOC3 and PCSK9 expression and additional biological parameters. Liver APOC3 and PCSK9 mRNA expression levels were quantified via qPCR, using cARL1 as endogenous control gene, normalized to Day-6 (pre-dose).

PCSK9 [2] = test: Liver PCSK9 mRNA expression by qPCR of liver biopsies (Example 5); conditions: for Rel. Exp. PCSK9 (liver mRNA, qPCR, normalized to Day −6): 6.0 mg/kg SQ on Day 1
Procedure: as §1, §2, §3, §4

PCSK9 [3] = test: Serum PCSK9 by ELISA (Example 5); conditions: for Rel. Exp. PCSK9 (serum, ELISA, normalized to pre-dose): 6.0 mg/kg SQ on Day 1; for inhibition of serum PCSK9: single 6.0 mg/kg SQ on Day 1
Procedure: as §1
(§5) Serum blood (approximately 5.0 mL) was collected on Day −6, Day 8, Day 15, Day 22, Day 29, Day 36, Day 43, Day 50, […], prior to liver biopsy sample collections or dose administration (when applicable), and from any animals found in moribund condition or sacrificed at an unscheduled interval. The collection site was the femoral vein, with a saphenous vein as an alternative collection site.
Serum PCSK9 was quantified via ELISA (R&D Systems, Cat. #DPC900) in accordance with manufacturer's instructions. The relative PCSK9 levels were normalized to pre-dose Day −6.

APOC3 [4] = test: Serum APOC3 by Roche Cobas assay (Example 5); conditions: for APOC3 (serum): 6.0 mg/kg SQ on Day 1; for inhibition of serum APOC3 relative to Day −6: single 6.0 mg/kg SQ on Day 1
Procedure: as §1, §5
Serum APOC3 was quantified via Roche Cobas® assay for APOC3 in accordance with manufacturer's instructions.

B1: AC003791: APOC3-PCSK9 dimer RNAi agent conjugate with (NAG52)s ligand, SEQ ID NO 14-16 (nucleic acid)
chain 1: AAGUUACAAAAGCAAAACG
chain 2: UCACUGAGAAUACUGUCCC
chain 3: CGUUUUGCUUUUGUAACUUGGGACAGUAUUCUCAGUNA
modifications: (NAG52)s ligand conjugate; modified_base 1 OTHER; 5'-cyclopropyl phosphonate-2'-O-methyladenosine; modified_base 1^2 OTHER; phosphorothioate linkage; modified_base 2 OTHER; 2'-fluoroadenosine; modified_base 2^3 OTHER; modified_base 3 gm; modified_base 4 um; modified_base 5 um; modified_base 6 OTHER; 2'-O-methyladenosine; modified_base 7 cm; modified_base 8 OTHER; modified_base; 5'-cyclopropyl phosphonate-2'-O-methyluridine; 2'-fluorocytidine; phosphor
- Rel. Exp. APOC3 (liver mRNA, qPCR, normalized to Day −6) (APOC3 [1]; Day 15): 0.408
- Rel. Exp. APOC3 (liver mRNA, qPCR, normalized to Day −6) (APOC3 [1]; Day 36): 0.611
- Rel. Exp. APOC3 (liver mRNA, qPCR, normalized to Day −6) (APOC3 [1]; Day 50): 0.336
- inhibition of liver APOC3 transcripts (APOC3 [1]; Day 50): approximately 66%
- Rel. Exp. APOC3 (liver mRNA, qPCR, normalized to Day −6) (APOC3 [1]; Day 64): 0.500
- inhibition of liver APOC3 transcripts (APOC3 [1]; Day 64): approximately 50%
- Rel. Exp. APOC3 (liver mRNA, qPCR, normalized to Day −6) (APOC3 [1]; Day −6 (pre-dose baseline)): 1.000
- Rel. Exp. PCSK9 (liver mRNA, qPCR, normalized to Day −6) (PCSK9 [2]; Day 15): 0.692
- Rel. Exp. PCSK9 (liver mRNA, qPCR, normalized to Day −6) (PCSK9 [2]; Day 36): 0.908
- Rel. Exp. PCSK9 (liver mRNA, qPCR, normalized to Day −6) (PCSK9 [2]; Day 50): 1.271
- Rel. Exp. PCSK9 (liver mRNA, qPCR, normalized to Day −6) (PCSK9 [2]; Day 64): 0.351
- inhibition of liver PCSK9 transcripts (PCSK9 [2]; Day 64, single 6.0 mg/kg SQ on Day 1): approximately 64%
- Rel. Exp. PCSK9 (liver mRNA, qPCR, normalized to Day −6) (PCSK9 [2]; Day −6 (pre-dose baseline)): 1.000
- Rel. Exp. PCSK9 (serum, ELISA, normalized to pre-dose) (PCSK9 [3]; Day 1): 1.161
- Rel. Exp. PCSK9 (serum, ELISA, normalized to pre-dose) (PCSK9 [3]; Day 8): 0.682
- Rel. Exp. PCSK9 (serum, ELISA, normalized to pre-dose) (PCSK9 [3]; Day 15): 0.415
- Rel. Exp. PCSK9 (serum, ELISA, normalized to pre-dose) (PCSK9 [3]; Day 22): 0.339
- Rel. Exp. PCSK9 (serum, ELISA, normalized to pre-dose) (PCSK9 [3]; Day 29): 0.353
- inhibition of serum PCSK9 (PCSK9 [3]; Day 36 (nadir)): approximately 67%
- Rel. Exp. PCSK9 (serum, ELISA, normalized to pre-dose) (PCSK9 [3]; Day 36): 0.323
- Rel. Exp. PCSK9 (serum, ELISA, normalized to pre-dose) (PCSK9 [3]; Day 43): 0.375
- Rel. Exp. PCSK9 (serum, ELISA, normalized to pre-dose) (PCSK9 [3]; Day 50): 0.759
- Rel. Exp. PCSK9 (serum, ELISA, normalized to pre-dose) (PCSK9 [3]; Day 57): 0.431
- Rel. Exp. PCSK9 (serum, ELISA, normalized to pre-dose) (PCSK9 [3]; Day 64): 0.538
- inhibition of serum PCSK9 (PCSK9 [3]; Day 64): approximately 46%
- Rel. Exp. PCSK9 (serum, ELISA, normalized to pre-dose) (PCSK9 [3]; Day −6 (pre-dose)): 0.925
- APOC3 (serum) (APOC3 [4]; Day 1): 6.48 mg/dL
- APOC3 (serum) (APOC3 [4]; Day 8): 4.57 mg/dL
- APOC3 (serum) (APOC3 [4]; Day 15): 4.03 mg/dL
- APOC3 (serum) (APOC3 [4]; Day 22): 2.92 mg/dL
- APOC3 (serum) (APOC3 [4]; Day 29): 3.69 mg/dL
- inhibition of serum APOC3 relative to Day −6 (APOC3 [4]; Day 36 (nadir)): approximately 51%
- APOC3 (serum) (APOC3 [4]; Day 36): 2.96 mg/dL
- APOC3 (serum) (APOC3 [4]; Day 43): 3.18 mg/dL
- APOC3 (serum) (APOC3 [4]; Day 50): 3.32 mg/dL
- APOC3 (serum) (APOC3 [4]; Day 57): 4.56 mg/dL
- APOC3 (serum) (APOC3 [4]; Day 64): 4.65 mg/dL
- inhibition of serum APOC3 relative to Day −6 (APOC3 [4]; Day 64): approximately 24%
- APOC3 (serum) (APOC3 [4]; Day −6 (pre-dose baseline)): 6.15 mg/dL

B2: AC005898: APOC3-PCSK9 dimer RNAi agent conjugate with (NAG52)s ligand, SEQ ID NO 17-19 (nucleic acid)
chain 1: ACAAAAGCAAAACAGGUCC
chain 2: UCACUGAGAAUACUGUCCC
chain 3: GGACCUGUUUUGCUUUUGUGGGACAGUAUUCUCAGUNA
modifications: (NAG52)s ligand conjugate; modified_base 1 OTHER; 5'-cyclopropyl phosphonate-2'-O-methyladenosine; modified_base 1^2 OTHER; phosphorothioate linkage; modified_base 2 OTHER; 2'-fluorocytidine; modified_base 2^3 OTHER; modified_base 3 OTHER; 2'-O-methyladenosine; modified_base 3^4 OTHER; modified_base 4 OTHER; 2'-fluoroadenosine; modified_base 5 OTHER; 5'-cyclopropyl phosphonate-2'-O-methyluridine; phosphor
- Rel. Exp. APOC3 (liver mRNA, qPCR, normalized to Day −6) (APOC3 [1]; Day 15): 0.545
- Rel. Exp. APOC3 (liver mRNA, qPCR, normalized to Day −6) (APOC3 [1]; Day 36): 0.929
- Rel. Exp. APOC3 (liver mRNA, qPCR, normalized to Day −6) (APOC3 [1]; Day 50): 0.491
- Rel. Exp. APOC3 (liver mRNA, qPCR, normalized to Day −6) (APOC3 [1]; Day 64): 0.535
- Rel. Exp. APOC3 (liver mRNA, qPCR, normalized to Day −6) (APOC3 [1]; Day −6 (pre-dose baseline)): 1.000
- Rel. Exp. PCSK9 (liver mRNA, qPCR, normalized to Day −6) (PCSK9 [2]; Day 15): 0.614
- Rel. Exp. PCSK9 (liver mRNA, qPCR, normalized to Day −6) (PCSK9 [2]; Day 36): 0.520
- Rel. Exp. PCSK9 (liver mRNA, qPCR, normalized to Day −6) (PCSK9 [2]; Day 50): 0.528
- Rel. Exp. PCSK9 (liver mRNA, qPCR, normalized to Day −6) (PCSK9 [2]; Day 64): 0.457
- Rel. Exp. PCSK9 (liver mRNA, qPCR, normalized to Day −6) (PCSK9 [2]; Day −6 (pre-dose baseline)): 1.000
- Rel. Exp. PCSK9 (serum, ELISA, normalized to pre-dose) (PCSK9 [3]; Day 1): 1.004
- Rel. Exp. PCSK9 (serum, ELISA, normalized to pre-dose) (PCSK9 [3]; Day 8): 0.724
- Rel. Exp. PCSK9 (serum, ELISA, normalized to pre-dose) (PCSK9 [3]; Day 15): 0.561
- Rel. Exp. PCSK9 (serum, ELISA, normalized to pre-dose) (PCSK9 [3]; Day 22): 0.560
- Rel. Exp. PCSK9 (serum, ELISA, normalized to pre-dose) (PCSK9 [3]; Day 29): 0.617
- Rel. Exp. PCSK9 (serum, ELISA, normalized to pre-dose) (PCSK9 [3]; Day 36): 0.426
- Rel. Exp. PCSK9 (serum, ELISA, normalized to pre-dose) (PCSK9 [3]; Day 43): 0.790
- Rel. Exp. PCSK9 (serum, ELISA, normalized to pre-dose) (PCSK9 [3]; Day 50): 0.728
- Rel. Exp. PCSK9 (serum, ELISA, normalized to pre-dose) (PCSK9 [3]; Day 57): 0.762
- Rel. Exp. PCSK9 (serum, ELISA, normalized to pre-dose) (PCSK9 [3]; Day 64): 0.928
- Rel. Exp. PCSK9 (serum, ELISA, normalized to pre-dose) (PCSK9 [3]; Day −6 (pre-dose)): 1.140
- APOC3 (serum) (APOC3 [4]; Day 1): 6.10 mg/dL
- APOC3 (serum) (APOC3 [4]; Day 8): 4.61 mg/dL
- APOC3 (serum) (APOC3 [4]; Day 15): 3.59 mg/dL
- inhibition of serum APOC3 relative to Day −6 (APOC3 [4]; Day 22 (nadir)): approximately 40%
- APOC3 (serum) (APOC3 [4]; Day 22): 3.50 mg/dL
- APOC3 (serum) (APOC3 [4]; Day 29): 4.16 mg/dL
- APOC3 (serum) (APOC3 [4]; Day 36): 3.59 mg/dL
- APOC3 (serum) (APOC3 [4]; Day 43): 4.07 mg/dL
- APOC3 (serum) (APOC3 [4]; Day 50): 3.96 mg/dL
- APOC3 (serum) (APOC3 [4]; Day 57): 4.94 mg/dL
- APOC3 (serum) (APOC3 [4]; Day 64): 4.47 mg/dL
- inhibition of serum APOC3 relative to Day −6 (APOC3 [4]; Day 64): approximately 23%
- APOC3 (serum) (APOC3 [4]; Day −6 (pre-dose baseline)): 5.84 mg/dL
